Experimental data as given in patent US20220306744A1 (CRESCENDO BIOLOGICS, published 2022).
Substitutions are numbered along the chain they refer to.

B1: 1.51a (VHH)
VHH: EVQLVESGGGVVRPGGSLRLSCAASGFTFDDYAMSWVRQAPGKGLEWVSGITWNGGSTGYADSVKDRFTISRDNAKNSLYLQMNSLRAEDTALYYCVRDKYSYAWSYDGFDIWGQGTMVTVSS
B2: 1.58a (VHH)
VHH: B1 VHH with E1Q, V11L, R13Q, T52S, T58A, V97A, K100P, Y101H, Y103S, G109A
B3: 1.59a (VHH)
VHH: B1 VHH with E1Q, T52S, T58K, V97A, K100P, Y103G, G109A
B4: 1.60a (VHH)
VHH: B1 VHH with E1Q, T52S, V97A, K100P, Y103G, G109A
B5: 1.61a (VHH)
VHH: B1 VHH with E1Q, D31N, V97A, G109T, W113R
B6: 1.62a (VHH)
VHH: B1 VHH with G55A, D66G, G109D
notes: also called Humabody 1.62a
B7: 1.63a (VHH)
VHH: B1 VHH with G55R, D66G, G109D
B8: 1.64a (VHH)
VHH: B1 VHH with M34F, D66G
B9: 1.65a (VHH)
VHH: B1 VHH with M34Q, D66G
B10: 1.66a (VHH)
VHH: B1 VHH with M34N, D66G
B11: 1.67a (VHH)
VHH: B1 VHH with M34G, D66G
B12: 1.68a (VHH)
VHH: B1 VHH with M34E, D66G
B13: 1.69a (VHH)
VHH: B1 VHH with M34W, D66G
B14: 1.70a (VHH)
VHH: B1 VHH with M34V, D66G
B15: 1.71a (VHH)
VHH: B1 VHH with M34L, D66G
B16: 1.72a (VHH)
VHH: B1 VHH with M34S, D66G
B17: 1.73a (VHH)
VHH: B1 VHH with M34R, D66G
B18: 1.74a (VHH)
VHH: B1 VHH with G55S, G109D
B19: 1.75a (VHH)
VHH: B1 VHH with G55Q, G109D
B20: 1.76a (VHH)
VHH: B1 VHH with G55H, G109V
B21: 1.77a (VHH)
VHH: B1 VHH with G55A, G109D
B22: 1.78a (VHH)
VHH: B1 VHH with D66G, G109V
B23: 1.79a (VHH)
VHH: B1 VHH with D66G, G109D
B24: 1.80a (VHH)
VHH: B1 VHH with G55K, G109D
B25: 1.81a (VHH)
VHH: B1 VHH with G55R, G109D
B26: 1.82a (VHH)
VHH: B1 VHH with M34I
B27: 1.83a (VHH)
VHH: B1 VHH with M34T
B28: 1.84a (VHH)
VHH: B1 VHH with M34N
B29: 1.85a (VHH)
VHH: B1 VHH with M34D
B30: 1.86a (VHH)
VHH: B1 VHH with M34S
B31: 1.87a (VHH)
VHH: B1 VHH with M34L
B32: 1.88a (VHH)
VHH: B1 VHH with M34G
B33: 1.89a (VHH)
VHH: B1 VHH with M34E
B34: 1.90a (VHH)
VHH: B1 VHH with M34W
B35: 1.91a (VHH)
VHH: B1 VHH with M34R
B36: 1.92a (VHH)
VHH: B1 VHH with M34F
B37: 1.93a (VHH)
VHH: B1 VHH with M34V
B38: 1.94a (VHH)
VHH: B1 VHH with N54T
B39: 1.95a (VHH)
VHH: B1 VHH with N54S
B40: 1.96a (VHH)
VHH: B1 VHH with N54P
B41: 1.97a (VHH)
VHH: B1 VHH with N54I
B42: 1.98a (VHH)
VHH: B1 VHH with N54L
B43: 1.99a (VHH)
VHH: B1 VHH with D66G
B44: 1.100a (VHH)
VHH: B1 VHH with N54K
B45: 1.101a (VHH)
VHH: B1 VHH with N54R
B46: 1.102a (VHH)
VHH: B1 VHH with G109V
B47: 1.52a (VHH)
VHH: EVQLLESGGGVVRPGGSLRLSCAASGFTFDDYGMSWVRQPPGKGLEWVSGISRNGGSAGYSDSAKDRFTISRDNAKNSLYLQMNSLRADDTAMYYCAREKYSSGWSYDDFDIWGQGTMVTVSS
B48: 1.53a (VHH)
VHH: B47 VHH with E1Q, L5V, P40S
B49: 1.54a (VHH)
VHH: B47 VHH with E1Q, L5V
B50: 1.55a (VHH)
VHH: B47 VHH with L5V
B51: 1.56a (VHH)
VHH: QVQLVESGGGVVRLGGSLRLSCAASGFSFVDYGMSWVRQAPGQGLEWVSGISRNGGSTGYADSVKDRFTISRDNAKNTLYLQMNSLRAEDTALYYCARDPYSSGWSYDSFDIWGQGTMVTVSS
B52: 1.57a (VHH)
VHH: B47 VHH with E1Q, L5V, P40A, A58T, S61T, D62A, A64V
B53: 1.12b (VHH)
VHH: EVQLLESGGGVVKPGGSLRLSCAASGFTFSDYYMGWIRQAPGKGLEWISYISSSGSTIYYADSVKGRFTISRDNAKNSLYLQMNSLRAEDTAVYYCAREAPLRLGESPHDAFDIWGQGTMVTVSS
B54: 1.15b (VHH)
VHH: B53 VHH with E1Q, L5V, V11L, Y32N, Y33S, G35S, I48V, S85T, R98K
B55: 1.24b (VHH)
VHH: QVTLKESGGGLVKPGGSLRLSCAASGFTFSDYDMYWIRQAPGKGLEWVSYISRGGSVTYYADSVKGRFTISRDNAKNALYLQMNSLRAEDMAVYFCATEAPLRLGETPHAAFDIWGQGTMVTVSS

What follows are binders tested against T1, human PD-1 expressed on cells (CHO TREX human PD1 cell line, full-length human PD-1 sequence) (human, UniProt Q15116 21-288) (assay: worded summary of the screens).
T1 construct: Also used for human PD-1 on Jurkat reporter cells, on PathHunter cells and on PHA-stimulated human CD4+ T cells; also called CHO human PD1 cells; CHO human PD-1 cells
T1 sequence (Q15116 21-288): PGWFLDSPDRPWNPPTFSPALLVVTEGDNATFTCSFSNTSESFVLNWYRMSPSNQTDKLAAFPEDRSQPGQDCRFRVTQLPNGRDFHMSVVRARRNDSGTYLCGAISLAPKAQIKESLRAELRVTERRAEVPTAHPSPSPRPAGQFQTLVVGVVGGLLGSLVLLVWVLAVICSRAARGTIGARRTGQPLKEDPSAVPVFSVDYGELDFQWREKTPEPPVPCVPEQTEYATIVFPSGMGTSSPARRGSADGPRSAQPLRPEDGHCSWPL

Row | Binder | binding result
1 | B1 | binds
2 | B2 | binds
3 | B3 | binds
4 | B4 | binds
5 | B5 | binds
6 | B6 | binds
7 | B7 | binds
8 | B8 | binds
9 | B9 | binds
10 | B10 | binds
11 | B11 | binds
12 | B12 | binds
13 | B13 | binds
14 | B14 | binds
15 | B15 | binds
16 | B16 | binds
17 | B17 | binds
18 | B18 | binds
19 | B19 | binds
20 | B20 | binds
21 | B21 | binds
22 | B22 | binds
23 | B23 | binds
24 | B24 | binds
25 | B25 | binds
26 | B26 | binds
27 | B27 | binds
28 | B28 | binds

Row | Binder | binding result
29 | B29 | binds
30 | B30 | binds
31 | B31 | binds
32 | B32 | binds
33 | B33 | binds
34 | B34 | binds
35 | B35 | binds
36 | B36 | binds
37 | B37 | binds
38 | B38 | binds
39 | B39 | binds
40 | B40 | binds
41 | B41 | binds
42 | B42 | binds
43 | B43 | binds
44 | B44 | binds
45 | B45 | binds
46 | B46 | binds
47 | B47 | binds
48 | B48 | binds
49 | B49 | binds
50 | B50 | binds
51 | B51 | binds
52 | B52 | binds
53 | B53 | binds
54 | B54 | binds
55 | B55 | binds
